According to US20100184658A1 (published 2010):

Assays:
Test in all cases: cell-based or functional assay
[1] = molecular target: RPS6KA3 (RSK2) Ribosomal protein S6 kinase, 90 kDa, polypeptide 3 (UniProt P51812 1-740, limits assumed)
[2] = molecular target: PRKCB1 (PKC beta I) Protein kinase C, beta 1 (UniProt P05771 1-671)
[3] = molecular target: T1, STK3 (MST2) Serine/threonine kinase 3 (STE20 homolog, yeast) (UniProt Q13188 1-491, limits assumed)
T1 sequence (looked up): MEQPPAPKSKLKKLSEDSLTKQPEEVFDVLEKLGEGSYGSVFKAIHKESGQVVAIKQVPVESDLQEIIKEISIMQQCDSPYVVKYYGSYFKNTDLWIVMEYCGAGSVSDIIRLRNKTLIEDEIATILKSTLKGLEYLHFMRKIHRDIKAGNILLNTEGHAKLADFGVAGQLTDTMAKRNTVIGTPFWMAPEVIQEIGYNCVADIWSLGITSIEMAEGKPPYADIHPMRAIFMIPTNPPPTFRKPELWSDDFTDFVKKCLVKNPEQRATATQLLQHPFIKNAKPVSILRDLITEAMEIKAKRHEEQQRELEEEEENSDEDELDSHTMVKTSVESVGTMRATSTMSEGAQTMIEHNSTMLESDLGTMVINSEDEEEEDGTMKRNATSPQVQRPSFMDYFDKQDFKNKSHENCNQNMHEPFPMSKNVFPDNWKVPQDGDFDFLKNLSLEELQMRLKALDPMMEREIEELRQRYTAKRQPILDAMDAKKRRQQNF

[4] = molecular target: T2, MERTK (cMER) (UniProt Q12866 578-872, limits assumed)
T2 sequence (looked up): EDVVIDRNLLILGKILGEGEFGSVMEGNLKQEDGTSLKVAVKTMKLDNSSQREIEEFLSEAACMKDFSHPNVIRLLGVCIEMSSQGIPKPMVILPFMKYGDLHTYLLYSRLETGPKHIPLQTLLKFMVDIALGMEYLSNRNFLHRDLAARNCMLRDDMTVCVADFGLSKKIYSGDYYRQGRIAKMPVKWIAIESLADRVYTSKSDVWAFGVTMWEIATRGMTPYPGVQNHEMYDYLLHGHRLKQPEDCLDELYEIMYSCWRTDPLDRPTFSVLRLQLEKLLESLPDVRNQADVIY

[5] = molecular target: MAP4K5 (KHS1) (UniProt Q9Y4K4 1-846, limits assumed)
Chain of MAP4K5 (KHS1) (Q9Y4K4 whole entry): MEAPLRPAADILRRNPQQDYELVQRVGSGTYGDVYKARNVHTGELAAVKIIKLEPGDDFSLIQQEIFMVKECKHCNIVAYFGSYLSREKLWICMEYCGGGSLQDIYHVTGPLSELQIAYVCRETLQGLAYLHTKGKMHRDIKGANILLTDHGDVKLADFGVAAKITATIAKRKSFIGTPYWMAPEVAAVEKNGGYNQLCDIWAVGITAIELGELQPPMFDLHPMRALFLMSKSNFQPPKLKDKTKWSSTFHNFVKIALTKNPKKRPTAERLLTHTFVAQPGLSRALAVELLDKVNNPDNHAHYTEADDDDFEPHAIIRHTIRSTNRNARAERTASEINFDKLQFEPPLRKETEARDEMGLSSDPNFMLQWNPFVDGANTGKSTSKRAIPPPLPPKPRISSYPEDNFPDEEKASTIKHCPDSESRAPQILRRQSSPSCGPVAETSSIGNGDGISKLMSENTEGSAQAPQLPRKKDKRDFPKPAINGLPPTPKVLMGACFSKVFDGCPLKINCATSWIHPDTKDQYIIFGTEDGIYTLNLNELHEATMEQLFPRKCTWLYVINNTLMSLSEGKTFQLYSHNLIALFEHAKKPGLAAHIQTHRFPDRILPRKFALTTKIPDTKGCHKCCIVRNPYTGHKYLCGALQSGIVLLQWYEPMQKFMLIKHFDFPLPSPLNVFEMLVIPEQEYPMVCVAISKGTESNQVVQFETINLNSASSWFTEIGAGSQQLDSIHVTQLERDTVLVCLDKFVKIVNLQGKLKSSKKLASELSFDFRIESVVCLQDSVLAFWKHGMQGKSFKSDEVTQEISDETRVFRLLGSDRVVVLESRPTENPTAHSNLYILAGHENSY

[6] = molecular target: CAMK2A (CaMKII alpha) (UniProt Q9UQM7 1-478, limits assumed)
Chain of CAMK2A (CaMKII alpha) (Q9UQM7 whole entry): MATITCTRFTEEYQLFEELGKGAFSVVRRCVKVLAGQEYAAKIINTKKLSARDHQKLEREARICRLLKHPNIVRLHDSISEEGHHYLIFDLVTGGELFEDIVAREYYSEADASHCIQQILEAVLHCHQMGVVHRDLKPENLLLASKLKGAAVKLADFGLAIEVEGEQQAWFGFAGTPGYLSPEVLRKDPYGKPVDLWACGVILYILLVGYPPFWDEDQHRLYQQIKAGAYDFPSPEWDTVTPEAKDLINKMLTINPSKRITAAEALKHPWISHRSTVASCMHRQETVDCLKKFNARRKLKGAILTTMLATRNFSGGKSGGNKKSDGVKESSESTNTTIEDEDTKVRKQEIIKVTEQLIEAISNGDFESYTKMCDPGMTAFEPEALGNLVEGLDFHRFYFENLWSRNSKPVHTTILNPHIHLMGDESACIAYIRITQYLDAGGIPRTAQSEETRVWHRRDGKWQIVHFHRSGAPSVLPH

[7] = molecular target: RPS6KA5 (MSK1) (UniProt O75582 1-802, limits assumed)
Chain of RPS6KA5 (MSK1) (O75582 whole entry): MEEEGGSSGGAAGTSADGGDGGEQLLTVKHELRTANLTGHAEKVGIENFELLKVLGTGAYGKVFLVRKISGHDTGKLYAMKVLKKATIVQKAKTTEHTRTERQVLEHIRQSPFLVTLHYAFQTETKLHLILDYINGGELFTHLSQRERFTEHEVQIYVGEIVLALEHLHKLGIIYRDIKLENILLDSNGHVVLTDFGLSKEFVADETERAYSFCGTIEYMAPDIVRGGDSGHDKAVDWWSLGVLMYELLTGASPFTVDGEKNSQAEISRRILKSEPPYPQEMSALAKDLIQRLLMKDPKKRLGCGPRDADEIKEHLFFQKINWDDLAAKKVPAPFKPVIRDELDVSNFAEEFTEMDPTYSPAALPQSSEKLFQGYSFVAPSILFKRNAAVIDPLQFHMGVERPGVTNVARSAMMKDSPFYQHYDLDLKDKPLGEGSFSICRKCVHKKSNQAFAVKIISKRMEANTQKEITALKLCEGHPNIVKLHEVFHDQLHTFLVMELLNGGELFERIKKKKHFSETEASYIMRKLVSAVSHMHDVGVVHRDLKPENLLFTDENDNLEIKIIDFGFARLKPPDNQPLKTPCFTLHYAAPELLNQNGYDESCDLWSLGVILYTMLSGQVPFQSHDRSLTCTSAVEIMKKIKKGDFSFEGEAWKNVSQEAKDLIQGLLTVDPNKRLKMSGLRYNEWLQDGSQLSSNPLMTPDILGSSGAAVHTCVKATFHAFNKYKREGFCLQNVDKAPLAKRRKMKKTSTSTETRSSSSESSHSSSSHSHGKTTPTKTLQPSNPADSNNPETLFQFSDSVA

[8] = molecular target: T3, STK4 (MST1) Serine/threonine kinase 4 (UniProt Q13043 1-487, limits assumed)
T3 sequence (looked up): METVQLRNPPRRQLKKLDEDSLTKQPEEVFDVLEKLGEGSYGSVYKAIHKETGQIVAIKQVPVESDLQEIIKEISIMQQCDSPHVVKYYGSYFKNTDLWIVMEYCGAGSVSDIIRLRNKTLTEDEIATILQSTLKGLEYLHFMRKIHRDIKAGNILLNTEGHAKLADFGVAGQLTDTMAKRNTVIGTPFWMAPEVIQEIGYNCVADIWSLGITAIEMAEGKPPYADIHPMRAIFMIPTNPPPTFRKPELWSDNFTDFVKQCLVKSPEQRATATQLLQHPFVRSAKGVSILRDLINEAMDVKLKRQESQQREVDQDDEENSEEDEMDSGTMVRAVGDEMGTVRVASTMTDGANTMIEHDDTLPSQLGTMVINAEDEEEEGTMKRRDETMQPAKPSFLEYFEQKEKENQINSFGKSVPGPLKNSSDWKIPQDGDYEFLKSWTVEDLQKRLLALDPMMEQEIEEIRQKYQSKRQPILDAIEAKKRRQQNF

[9] = molecular target: CAMK2D (CaMKII delta) (UniProt Q13557 1-499, limits assumed)
Chain of CAMK2D (CaMKII delta) (Q13557 whole entry, stated change not applied): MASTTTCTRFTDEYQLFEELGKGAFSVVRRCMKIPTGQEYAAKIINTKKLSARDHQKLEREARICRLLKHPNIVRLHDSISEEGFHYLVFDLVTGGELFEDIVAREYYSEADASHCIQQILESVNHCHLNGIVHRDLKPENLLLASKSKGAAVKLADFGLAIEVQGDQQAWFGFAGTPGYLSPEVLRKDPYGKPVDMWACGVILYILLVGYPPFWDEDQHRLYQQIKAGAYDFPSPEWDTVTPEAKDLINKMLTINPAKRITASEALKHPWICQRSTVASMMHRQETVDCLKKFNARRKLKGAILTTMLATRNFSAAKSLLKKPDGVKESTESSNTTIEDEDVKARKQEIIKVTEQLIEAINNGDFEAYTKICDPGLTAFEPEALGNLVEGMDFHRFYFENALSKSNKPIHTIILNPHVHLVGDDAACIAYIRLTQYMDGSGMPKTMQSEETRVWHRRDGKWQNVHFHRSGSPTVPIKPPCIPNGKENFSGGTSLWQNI

[10] = molecular target: T4, BRSK1 (SAD1) (UniProt Q8TDC3 1-778, limits assumed)
T4 sequence (looked up): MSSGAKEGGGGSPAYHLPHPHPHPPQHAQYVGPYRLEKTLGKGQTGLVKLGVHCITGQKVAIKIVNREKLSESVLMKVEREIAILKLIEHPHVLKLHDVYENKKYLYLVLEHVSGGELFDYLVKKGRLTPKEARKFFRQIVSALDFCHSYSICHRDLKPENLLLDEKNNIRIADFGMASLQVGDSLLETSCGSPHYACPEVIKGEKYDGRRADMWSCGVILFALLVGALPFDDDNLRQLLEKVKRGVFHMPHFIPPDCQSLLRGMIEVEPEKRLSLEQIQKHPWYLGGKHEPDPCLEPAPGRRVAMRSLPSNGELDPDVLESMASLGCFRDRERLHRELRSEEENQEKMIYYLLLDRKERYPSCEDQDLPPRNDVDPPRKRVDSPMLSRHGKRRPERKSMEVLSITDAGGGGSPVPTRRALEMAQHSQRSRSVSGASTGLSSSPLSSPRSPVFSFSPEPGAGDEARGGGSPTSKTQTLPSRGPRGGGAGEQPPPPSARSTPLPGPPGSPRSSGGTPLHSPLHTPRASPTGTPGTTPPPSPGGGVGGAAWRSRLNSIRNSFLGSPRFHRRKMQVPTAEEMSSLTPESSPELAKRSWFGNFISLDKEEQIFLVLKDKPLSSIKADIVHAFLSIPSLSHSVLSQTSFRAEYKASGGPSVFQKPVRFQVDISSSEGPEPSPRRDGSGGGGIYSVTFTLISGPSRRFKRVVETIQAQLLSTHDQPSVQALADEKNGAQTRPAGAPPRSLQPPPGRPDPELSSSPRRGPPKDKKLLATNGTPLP

[11] = molecular target: MAP2K1 (MEK1) (UniProt Q02750 1-393, limits assumed)
[12] = molecular target: MAPKAPK2 Mitogen-activated protein kinase-activated protein kinase 2 (UniProt P49137 1-400, limits assumed)
Chain of MAPKAPK2 Mitogen-activated protein kinase-activated protein kinase 2 (P49137 whole entry): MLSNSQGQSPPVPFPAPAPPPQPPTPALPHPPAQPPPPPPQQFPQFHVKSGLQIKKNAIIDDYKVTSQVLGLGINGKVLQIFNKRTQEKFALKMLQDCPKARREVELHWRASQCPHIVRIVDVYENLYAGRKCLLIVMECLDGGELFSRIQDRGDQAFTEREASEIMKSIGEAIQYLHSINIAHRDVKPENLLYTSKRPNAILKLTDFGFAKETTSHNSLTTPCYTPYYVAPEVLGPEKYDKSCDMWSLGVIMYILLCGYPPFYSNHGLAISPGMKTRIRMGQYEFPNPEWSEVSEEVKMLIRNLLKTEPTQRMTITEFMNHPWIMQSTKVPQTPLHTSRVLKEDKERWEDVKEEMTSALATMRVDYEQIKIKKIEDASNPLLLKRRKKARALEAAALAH

[13] = molecular target: NEK6 NIMA (never in mitosis gene a)-related kinase 6 (UniProt Q9HC98 1-313, limits assumed)
Chain of NEK6 NIMA (never in mitosis gene a)-related kinase 6 (Q9HC98 whole entry): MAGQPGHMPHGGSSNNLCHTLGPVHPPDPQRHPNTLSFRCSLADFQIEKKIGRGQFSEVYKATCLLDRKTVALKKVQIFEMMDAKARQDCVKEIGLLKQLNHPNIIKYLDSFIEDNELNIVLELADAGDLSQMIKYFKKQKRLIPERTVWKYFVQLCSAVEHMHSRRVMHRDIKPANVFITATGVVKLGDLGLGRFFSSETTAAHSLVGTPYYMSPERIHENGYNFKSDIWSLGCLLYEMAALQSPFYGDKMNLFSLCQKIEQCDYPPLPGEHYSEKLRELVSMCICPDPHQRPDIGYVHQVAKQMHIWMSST

Chain of PRKCB1 (PKC beta I) Protein kinase C, beta 1 (P05771 whole entry): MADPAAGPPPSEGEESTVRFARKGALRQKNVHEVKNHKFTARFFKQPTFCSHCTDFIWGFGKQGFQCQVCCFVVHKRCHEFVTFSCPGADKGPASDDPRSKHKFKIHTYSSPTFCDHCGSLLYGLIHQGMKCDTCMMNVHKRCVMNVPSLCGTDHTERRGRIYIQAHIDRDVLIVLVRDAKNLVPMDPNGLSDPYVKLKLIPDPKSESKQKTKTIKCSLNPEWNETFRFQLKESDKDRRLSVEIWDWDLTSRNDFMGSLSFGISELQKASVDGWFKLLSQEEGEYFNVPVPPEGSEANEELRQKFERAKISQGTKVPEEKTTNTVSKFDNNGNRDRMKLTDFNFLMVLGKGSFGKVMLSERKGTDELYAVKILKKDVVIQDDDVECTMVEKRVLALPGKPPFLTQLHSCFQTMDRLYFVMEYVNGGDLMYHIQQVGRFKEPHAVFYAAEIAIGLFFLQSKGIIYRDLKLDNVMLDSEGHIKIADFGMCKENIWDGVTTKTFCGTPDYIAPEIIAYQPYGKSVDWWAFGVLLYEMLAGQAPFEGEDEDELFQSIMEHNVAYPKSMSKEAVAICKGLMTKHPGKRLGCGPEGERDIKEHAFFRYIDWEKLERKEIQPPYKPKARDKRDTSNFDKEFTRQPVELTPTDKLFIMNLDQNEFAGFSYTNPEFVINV
Chain of RPS6KA3 (RSK2) Ribosomal protein S6 kinase, 90 kDa, polypeptide 3 (P51812 whole entry): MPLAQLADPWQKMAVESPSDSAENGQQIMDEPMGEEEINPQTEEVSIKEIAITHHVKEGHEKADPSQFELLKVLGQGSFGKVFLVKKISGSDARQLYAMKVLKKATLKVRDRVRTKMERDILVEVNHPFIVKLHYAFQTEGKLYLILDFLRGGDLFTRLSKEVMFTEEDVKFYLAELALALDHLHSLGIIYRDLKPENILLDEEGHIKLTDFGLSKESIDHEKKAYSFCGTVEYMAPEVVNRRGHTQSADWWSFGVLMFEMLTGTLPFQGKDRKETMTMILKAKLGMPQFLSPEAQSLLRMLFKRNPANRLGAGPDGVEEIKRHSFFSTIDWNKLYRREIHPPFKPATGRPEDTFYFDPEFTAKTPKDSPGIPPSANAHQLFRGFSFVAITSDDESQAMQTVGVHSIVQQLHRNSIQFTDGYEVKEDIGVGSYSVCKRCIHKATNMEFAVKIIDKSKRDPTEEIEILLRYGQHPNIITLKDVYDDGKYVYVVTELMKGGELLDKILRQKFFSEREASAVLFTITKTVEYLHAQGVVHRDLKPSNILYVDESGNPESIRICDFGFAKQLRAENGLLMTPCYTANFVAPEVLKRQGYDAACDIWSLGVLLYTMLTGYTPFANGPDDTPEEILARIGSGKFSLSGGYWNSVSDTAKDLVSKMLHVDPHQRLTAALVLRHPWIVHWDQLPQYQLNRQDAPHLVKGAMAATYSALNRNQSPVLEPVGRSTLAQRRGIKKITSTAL

## SGRPPMIVWFNRPFLIAVSHTHGQTILFMAKVINPVGA [D3 peptide]
[1]
  % Inhibition mean: 93%
[2]
  % Inhibition mean: 88%
[3]
  % Inhibition mean: 90.4%
[4]
  % Inhibition mean: 79.5%
[5]
  % Inhibition mean: 86.3%
[6]
  % Inhibition mean: 82.6%
[7]
  % Inhibition mean: 85%
[8]
  % Inhibition mean: 99%
[9]
  % Inhibition mean: 72.5%
[10]
  % Inhibition mean: 83.5%
[11]
  % Inhibition mean: 94%
[12]
  % Inhibition mean: 58%
[13]
  % Inhibition mean: 97.4%
